Source: US20220119522A1 (DENALI THERAPEUTICS, published 2022)
Each block holds one binder with its values, some of them ahead of it. No end group written: not given here.

Columns and labels:
[1] = target: T1, human TREM2 on the cell surface (human, UniProt Q9NZC2 19-230); test: cell-based or functional assay
T1 sequence: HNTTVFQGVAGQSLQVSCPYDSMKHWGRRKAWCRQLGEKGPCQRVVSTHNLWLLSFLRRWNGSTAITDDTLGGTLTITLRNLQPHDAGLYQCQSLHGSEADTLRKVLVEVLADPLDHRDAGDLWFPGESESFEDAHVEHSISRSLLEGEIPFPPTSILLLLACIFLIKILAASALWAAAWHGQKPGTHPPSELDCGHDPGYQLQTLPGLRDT

[2] = target: T1, human TREM2 on the cell surface; test: cell binding, human macrophages, dose titration
[3] = target: T1, human TREM2 on the cell surface; test: flow cytometry, dose-titrated binding to HEK293-H6 cells
[4] = target: T2, His-tagged human TREM2 ECD (human, UniProt Q9NZC2 19-172); test: SPR (Biacore); Table 5 run, parent beside its humanized variants
T2 construct: Biacore and HDX say only recombinant human TREM2 (ECD); also called recombinant human TREM2; hTREM2
T2 sequence: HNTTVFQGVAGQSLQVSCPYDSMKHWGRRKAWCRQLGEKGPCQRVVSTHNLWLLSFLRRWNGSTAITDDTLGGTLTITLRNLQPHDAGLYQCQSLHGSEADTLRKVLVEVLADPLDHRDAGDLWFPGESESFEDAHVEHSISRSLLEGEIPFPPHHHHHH

[5] = target: T3, human TREM2 full length stalk region peptide (aa 129-172) (human, biotinylated (site not stated)); test: ELISA on biotinylated peptide captured by streptavidin; A450 normalised to isotype control
T3 construct: also called Human TREM2 peptide (aa 129-172); full-length TREM2 stalk peptide
T3 peptide: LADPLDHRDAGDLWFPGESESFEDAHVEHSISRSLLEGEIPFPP
Procedure, shortened: (§1)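 Sandwich ELISA: biotinylated TREM2 stalk peptides captured on streptavidin-coated plates, antibodies added for 1 h in 1% BSA/PBS, binding detected with anti-human kappa-HRP and TMB at A450. Values expressed as fold over isotype-control background.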

[6] = target: T4, mouse TREM2 full length stalk region peptide (aa 131-169) (mouse, UniProt Q99NH8 131-169, biotinylated (site not stated)); test: as above
T4 peptide (looked up): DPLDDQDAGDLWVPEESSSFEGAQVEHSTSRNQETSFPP
Procedure, shortened: as §1

[7] = target: T2, His-tagged human TREM2 ECD; test: SPR (Biacore), antibody captured via anti-human Fab, recombinant TREM2 ECD injected, 1:1 fit
Protocol: (§2) Surface plasmon resonance (Biacore™ 8K instrument) was used to measure anti-TREM2 antibody affinities for human and cynomolgus TREM2 ECD. Anti-TREM2 antibodies were captured using Human Fab Capture Kit (GE Healthcare Life Sciences, Catalog No. 28958325) on a Biacore Series S CM5 sensor chip (GE Healthcare Life Sciences, Catalog No. 29149604). Serial 3-fold dilutions of recombinant human or cynomolgus TREM2 were injected at a flow rate of 30 μL/min. Antibody binding was monitored for 300 seconds, followed by monitoring of antibody dissociation for 600+seconds in HBS-EP+ running buffer (GE Healthcare Life Sciences, Catalog No. BR100669). The binding response was corrected by subtracting the RU value from a blank flow cell. A 1:1 Languir model of simultaneous fitting of kₒₙ and koff was used for kinetics analysis.

[8] = target: T5, recombinant cynomolgus TREM2 ECD (cynomolgus); test: as above
T5 construct: extracellular domain; also called cyno TREM2
Protocol: as §2

[9] = target: T3, human TREM2 full length stalk region …; test: fluorescence polarization assay with TREM2 stalk peptide and ADAM17
Protocol: The ability of anti-TREM2 antibodies to inhibit TREM2 stalk peptide cleavage by ADAM17 was also analyzed using a fluorescence polarization assay. TREM2 stalk peptides were first prepared in assay buffer (25 mM Tris pH 7.5, 2.5 μM ZnCl₂, 0.005% Brij-35) with streptavidin. Anti-TREM2 antibodies were then pre-incubated with TREM2 stalk peptides for 30 minutes at room temperature. After the pre-incubation period, ADAM17 (R&D systems, Catalog No. 930-ADB) was added and incubated with the peptides for 20 hours at 37° C. The following day, samples were further diluted in assay buffer and transferred to a black opaque 384-well plate. Fluorescence polarization was subsequently measured on Perkin Elmer EnVision plate reader. The fluorescence polarization of TREM2 stalk peptides pre-incubated with anti-TREM2 antibody was compared to fluorescence polarization of full-length TREM2 stalk peptide and enzyme control (full-length TREM2 stalk peptide with ADAM17).

[10] = target: T6, human TREM2 truncated stalk peptide (aa 149-163) (human, also: biotinylated (site not given here)); test: ELISA on biotinylated peptide captured by streptavidin; A450 normalised to isotype control
T6 construct: also called Human TREM2 peptide (aa 149-163); truncated stalk peptide containing the ADAM10/17 cleavage site
T6 peptide: SFEDAHVEHSISRSL
Procedure, shortened: as §1

NFAT EC50 (nM), plate coated mAb [1]: 91.2 nM
pSyk activation (human macrophages) EC50 (nM) [1]: 7.7 nM
EC50 [2]: 0.5 nM
EC50 [3]: 0.44 nM
Kd [4]: 9.5 nM
fold over background (A450) [5]: 51 fold
fold over background (A450) [6]: 33 fold
Kd [7]: 5.2 nM
Kd [8]: 2 nM
B1: CL0020188 (antibody, V domains shown)
VH: EVKLLDSGGGLVQAGGSLRLSCAGSGFTFTDFYMSWIRQPPGKAPEWLGVIRNKANGYTAGYNPSVKGRFTISRDNTQNILYLQMNTLRAEDTAIYYCARLTYGFDYWGQGVMVTVSS
VL: DIVMTQGALPNPVPSGESASITCQSSKSLLHSNGKTYLNWYLQRPGQSPQLLIYWMSTRASGVSDRFSGSGSGTDFTLKISSVEAEDVGVYYCQQFLEYPFTFGSGTKLEIK
notes: also called Clone CL0020188
Survival EC50 (nM), plate coated mAb, human macrophages [1]: 2.4 nM

NFAT EC50 (nM), plate coated mAb [1]: 10.9 nM
pSyk activation (human macrophages) EC50 (nM) [1]: 28.5 nM
EC50 [2]: 4.4 nM
binding result [9]: no binding
fold over background (A450) [5]: 1.7 fold
fold over background (A450) [10]: 1.4 fold
fold over background (A450) [6]: 1.3 fold
Kd [7]: 1.47 nM
Kd [8]: 104 nM
B2: CL0020107 (antibody, V domains shown)
VH: QVQLQQPGAELVKPGASVKMSCRASGYTFTNYWISWVKQRPGQGLEWIGDIYPHSTSTNYNERFRSKATLTVDKSSTTAYMQLSSLTSEDSAVYYCAREGFGISAWGQGTTLTVSS
VL: QIVLTQSPAIMSASPGEKVTITCSATSSVSYMHWFQQKPGTSPKLWIYSTSNLASGVPARFSGSGSGTSHSLTISRMEAEDAATYYCQQRSSYPLTFGSGTKLELK
notes: also called Clone CL0020107
Survival EC50 (nM), plate coated mAb, human macrophages [1]: 0.53 nM
